Entries after “also recorded” stand apart in the source; their conditions may differ.
Tested on: chromosomally integrated CMV-7tetO luciferase reporter in HeLa X1/6 cells
Test: rtTA activity assay, HeLa X1/6 cells with integrated CMV-7tetO luciferase reporter (Example 1, FIG. 2-3, 5, 14, 15)
Type: cell-based
Conditions: for rtTA activation by minocycline (Mc): 0-10000 ng/ml Mc; for rtTA activation by tetracycline (Tc): 0-10000 ng/ml Tc; for basal / background activity in the absence of inducer: no dox or other effector
Text: To test whether this rtTA optimization reflects a specific adaptation to the viral LTR-2ΔtetO promoter, we assayed rtTA activity with a reporter gene construct in which luciferase expression is under the control of a minimal CMV promoter coupled to an array of seven tetO elements. […] Thus, the observed mutations in rtTA are not virus-specific adaptations, but are general improvements of the Tet-on system. We also assayed rtTA activity in HeLa X1/6 cells that contain chromosomally integrated copies of the CMV-7tetO luciferase reporter construct (FIG. 2C). In these cells, the evolved rtTAs show a similar pattern of activity as with episomal reporter gene constructs in C33A cells. Thus, these mutations improve rtTA activity independent of the type of promoter and the episomal or chromosomal status of the target gene.
The V10 variant needs only 44 ng/ml dox to reach this activity level, which reflects a 23-fold higher dox-sensitivity than the wild-type rtTA.
rtTA activity assay. Two firefly luciferase reporter constructs with different promoter configurations were used. pLTR-2ΔtetO-luc contains the LTR-2ΔtetO promoter derived from the HIV-rtTA molecular clone (Marzio et al. 2001; Marzio et al. 2002). pCMV-7tetO-luc, previously named pUHC13-3 (Gossen et al. 1992), contains seven tetO elements located upstream of a minimal CMV promoter. The plasmid pRL-CMV (PROMEGA®, Madison, Wis., USA), in which the expression of Renilla luciferase is controlled by the CMV promoter, was used as an internal control to allow correction for differences in transfection efficiency.
C33A and HeLa X1/6 cells were grown in 2-cm^2 wells to 60% confluency and transfected by the calcium phosphate precipitation method (Das et al. 1999). C33A cells were transfected with 0.4 ng pCMV-rtTA (wild-type or mutant), 20 ng pLTR-2ΔtetO-luc or pCMV-7tetO-luc, 0.5 ng pRL-CMV, and 980 ng pBluescript as carrier DNA. HeLa X1/6 cells were transfected with 8 ng pCMV-rtTA, 2.5 ng pRL-CMV, and 990 ng pBluescript. The amount of the DNA constructs was optimized for each cell type to keep rtTA-mediated transactivation within the linear range and to avoid squelching of transcription factors. Cells were cultured for 48 hours in the presence of different concentrations of dox, Tc or Mc, and lysed in Passive Lysis Buffer (PROMEGA®). Firefly and Renilla luciferase activities were determined with the dual-luciferase reporter assay (PROMEGA®). The activity of the rtTA variants was calculated as the ratio of the firefly and Renilla luciferase activities, and corrected for between-session variation.
FIG. 2. Novel rtTA variants show increased activity and dox-sensitivity in different Tet systems. The transcriptional activity of rtTA variants was measured in C33A cells transfected with a plasmid carrying the firefly luciferase reporter gene under the control of the viral LTR-2ΔtetO promoter (LTR-2ΔtetO; A) or under the control of a minimal CMV-derived promoter coupled to seven tetO elements (CMV7-tetO; B). Furthermore, rtTA activity was measured in HeLa X1/6 cells (Baron et al. 1997) that contain a chromosomally integrated copy of the CMV-7tetO reporter construct (CMV7tetO-integrated; C, D). Variants V1 to V10 were compared in all three Tet systems (panels A-C) and variants V11 to V18 in the cells with the integrated reporter (panel D). Cells were transfected with the indicated rtTA expression plasmid or pBluescript as a negative control, and a plasmid constitutively expressing Renilla luciferase to correct for differences in transfection efficiency. Cells were cultured in the presence of different dox concentrations (0-1000 ng/ml). The ratio of the firefly and Renilla luciferase activities measured 2 days after transfection reflects the rtTA activity. All values were related to the wild-type (wt) rtTA activity at 1000 ng/ml dox, which was arbitrarily set at 100%. In (C and D), average values of three transfections are shown with error bars indicating the standard deviation.
FIG. 3. […]

[1] = listed as C68R V9I G138D F86Y A209T
[2] = listed as S12G F67S V9I G138D F86Y A209T

B1: V9I C68R G138D F86Y A209T: rtTA variant with these amino acid substitutions (protein)
chain: MSRLDKSKIINSALELLNGVGIEGLTTRKLAQKLGVEQPTLYWHVKNKRALLDALPIEMLDRHHTHFRPLEGESWQDFLRNNAKSYRCALLSHRDGAKVHLGTRPTEKQYETLENQLAFLCQQGFSLENALYALSAVDHFTLGCVLEEQEHQVAKEERETPTTDSMPPLLRQAIELFDRQGAEPAFLFGLELIICGLEKQLKCESGGPTDALDDFDLDMLPADALDDFDLDMLPADALDDFDLDMLPG
[1]
  rtTA activation by minocycline (Mc): particularly sensitive for minocycline; also recorded: very sensitive for minocycline
  rtTA activation by tetracycline (Tc): particularly sensitive for tetracycline; also recorded: very sensitive for tetracycline
  basal / background activity in the absence of inducer: low background activity
  basal / background activity in the absence of inducer: no or low basal activity

B2: V9I G19M F67S G138D F86Y A209T: rtTA variant with these amino acid substitutions (protein)
chain: MSRLDKSKIINSALELLNMVGIEGLTTRKLAQKLGVEQPTLYWHVKNKRALLDALPIEMLDRHHTHSCPLEGESWQDFLRNNAKSYRCALLSHRDGAKVHLGTRPTEKQYETLENQLAFLCQQGFSLENALYALSAVDHFTLGCVLEEQEHQVAKEERETPTTDSMPPLLRQAIELFDRQGAEPAFLFGLELIICGLEKQLKCESGGPTDALDDFDLDMLPADALDDFDLDMLPADALDDFDLDMLPG
  rtTA activation by minocycline (Mc): particularly sensitive for minocycline
  rtTA activation by tetracycline (Tc): particularly sensitive for tetracycline
  basal / background activity in the absence of inducer: no or low basal activity

B3: V9I S12G F67S G138D F86Y A209T: rtTA variant with these amino acid substitutions (protein)
chain: MSRLDKSKIINGALELLNGVGIEGLTTRKLAQKLGVEQPTLYWHVKNKRALLDALPIEMLDRHHTHSCPLEGESWQDFLRNNAKSYRCALLSHRDGAKVHLGTRPTEKQYETLENQLAFLCQQGFSLENALYALSAVDHFTLGCVLEEQEHQVAKEERETPTTDSMPPLLRQAIELFDRQGAEPAFLFGLELIICGLEKQLKCESGGPTDALDDFDLDMLPADALDDFDLDMLPADALDDFDLDMLPG
[2]
  rtTA activation by minocycline (Mc): particularly sensitive for minocycline; also recorded: very sensitive for minocycline
  rtTA activation by tetracycline (Tc): very sensitive for tetracycline
  basal / background activity in the absence of inducer: low background activity
Listed as 512G F67S V9I G138D F86Y A209T
  rtTA activation by tetracycline (Tc): particularly sensitive for tetracycline
  basal / background activity in the absence of inducer: no or low basal activity

B4: V9I G19M G138D F86Y: rtTA variant with these amino acid substitutions (protein)
chain: MSRLDKSKIINSALELLNMVGIEGLTTRKLAQKLGVEQPTLYWHVKNKRALLDALPIEMLDRHHTHFCPLEGESWQDFLRNNAKSYRCALLSHRDGAKVHLGTRPTEKQYETLENQLAFLCQQGFSLENALYALSAVDHFTLGCVLEEQEHQVAKEERETPTTDSMPPLLRQAIELFDRQGAEPAFLFGLELIICGLEKQLKCESGGPADALDDFDLDMLPADALDDFDLDMLPADALDDFDLDMLPG
  basal / background activity in the absence of inducer: no or low basal activity

B5: V9I G19M G138D F86Y A209T: rtTA variant with these amino acid substitutions (protein)
chain: MSRLDKSKIINSALELLNMVGIEGLTTRKLAQKLGVEQPTLYWHVKNKRALLDALPIEMLDRHHTHFCPLEGESWQDFLRNNAKSYRCALLSHRDGAKVHLGTRPTEKQYETLENQLAFLCQQGFSLENALYALSAVDHFTLGCVLEEQEHQVAKEERETPTTDSMPPLLRQAIELFDRQGAEPAFLFGLELIICGLEKQLKCESGGPTDALDDFDLDMLPADALDDFDLDMLPADALDDFDLDMLPG
  rtTA activation by minocycline (Mc): particularly sensitive for minocycline
  rtTA activation by tetracycline (Tc): particularly sensitive for tetracycline
  basal / background activity in the absence of inducer: no or low basal activity

B6: V9I E37Q G138D F86Y: rtTA variant with these amino acid substitutions (protein)
chain: MSRLDKSKIINSALELLNGVGIEGLTTRKLAQKLGVQQPTLYWHVKNKRALLDALPIEMLDRHHTHFCPLEGESWQDFLRNNAKSYRCALLSHRDGAKVHLGTRPTEKQYETLENQLAFLCQQGFSLENALYALSAVDHFTLGCVLEEQEHQVAKEERETPTTDSMPPLLRQAIELFDRQGAEPAFLFGLELIICGLEKQLKCESGGPADALDDFDLDMLPADALDDFDLDMLPADALDDFDLDMLPG
  basal / background activity in the absence of inducer: no or low basal activity

B7: V9I G19M F67S G138D F86Y: rtTA variant with these amino acid substitutions (protein)
chain: MSRLDKSKIINSALELLNMVGIEGLTTRKLAQKLGVEQPTLYWHVKNKRALLDALPIEMLDRHHTHSCPLEGESWQDFLRNNAKSYRCALLSHRDGAKVHLGTRPTEKQYETLENQLAFLCQQGFSLENALYALSAVDHFTLGCVLEEQEHQVAKEERETPTTDSMPPLLRQAIELFDRQGAEPAFLFGLELIICGLEKQLKCESGGPADALDDFDLDMLPADALDDFDLDMLPADALDDFDLDMLPG
  basal / background activity in the absence of inducer: no or low basal activity

B8: V9I E37Q G138D F86Y A209T: rtTA variant with these amino acid substitutions (protein)
chain: MSRLDKSKIINSALELLNGVGIEGLTTRKLAQKLGVQQPTLYWHVKNKRALLDALPIEMLDRHHTHFCPLEGESWQDFLRNNAKSYRCALLSHRDGAKVHLGTRPTEKQYETLENQLAFLCQQGFSLENALYALSAVDHFTLGCVLEEQEHQVAKEERETPTTDSMPPLLRQAIELFDRQGAEPAFLFGLELIICGLEKQLKCESGGPTDALDDFDLDMLPADALDDFDLDMLPADALDDFDLDMLPG
  rtTA activation by minocycline (Mc): particularly sensitive for minocycline
  rtTA activation by tetracycline (Tc): particularly sensitive for tetracycline
  basal / background activity in the absence of inducer: no or low basal activity

B9: V9I S12G F67S G138D F86Y: rtTA variant with these amino acid substitutions (protein)
chain: MSRLDKSKIINGALELLNGVGIEGLTTRKLAQKLGVEQPTLYWHVKNKRALLDALPIEMLDRHHTHSCPLEGESWQDFLRNNAKSYRCALLSHRDGAKVHLGTRPTEKQYETLENQLAFLCQQGFSLENALYALSAVDHFTLGCVLEEQEHQVAKEERETPTTDSMPPLLRQAIELFDRQGAEPAFLFGLELIICGLEKQLKCESGGPADALDDFDLDMLPADALDDFDLDMLPADALDDFDLDMLPG
  basal / background activity in the absence of inducer: no or low basal activity
